The values that follow come from publication PMC13337110, “Pericentrosomal Redistribution of the Endoplasmic Reticulum Ensures Organelle Symmetric Inheritance and Mitotic Progression” (Advanced Science, 2026).

The target of this test is T1, 2×Strep-HA-RTN4B (human, UniProt Q9NQC3-2 1-373, when from mitotic cells: mitotic phosphorylation sites S15, S107, S111, S121, S129, S152).
T1 construct: Reticulon 4, isoform RTN4B, human; cDNA GenBank NM_153828.3 amplified from a U2OS cDNA library; N-terminal cytoplasmic region 1-185 and C-terminal RHD; Tag ends read from the printed construct name; also called Reticulon 4; 2×Strep-HA-RTN4B wild-type (WT); source: HeLa, stably expressed; not shown: 2×Strep, N-terminal, kept; HA, N-terminal, kept
T1 sequence (looked up): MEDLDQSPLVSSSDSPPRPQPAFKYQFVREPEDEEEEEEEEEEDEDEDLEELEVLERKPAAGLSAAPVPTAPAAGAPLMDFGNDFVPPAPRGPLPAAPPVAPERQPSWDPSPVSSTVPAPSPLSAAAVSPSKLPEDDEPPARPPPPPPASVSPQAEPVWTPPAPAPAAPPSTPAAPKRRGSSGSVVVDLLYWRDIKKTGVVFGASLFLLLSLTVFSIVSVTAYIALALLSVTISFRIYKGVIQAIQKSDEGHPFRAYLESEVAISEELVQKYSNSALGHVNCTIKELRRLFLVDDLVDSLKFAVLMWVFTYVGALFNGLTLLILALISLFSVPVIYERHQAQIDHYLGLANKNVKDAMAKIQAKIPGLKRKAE
Briefly: pull-down; in vitro binding: 2×Strep-HA-RTN4B on Strep-Tactin XT beads incubated with purified GST-Rab11A, 2 h at 4°C; eluted with Strep-Tactin XT elution buffer; Western blot and Coomassie. The following applies: both partners purified.

B1: GST-Rab11A (natural protein, human, UniProt P62491-1 1-216, looked up)
chain: MGTRDDEYDYLFKVVLIGDSGVGKSNLLSRFTRNEFNLESKSTIGVEFATRSIQVDGKTIKAQIWDTAGQERYRAITSAYYRGAVGALLVYDIAKHLTYENVERWLKELRDHADSNIVIMLVGNKSDLRHLRAVPTDEARAFAEKNGLSFIETSALDSTNVEAAFQTILTEIYRIVSQKQMSDRRENDMSPSNNVVPIHVPPTTENKPKVQCCQNI
notes: Rab11A, human; cDNA GenBank NM_004663.5 in pGEX-6P-1; also called Recombinant Rab11A; GST-tagged Rab11A; source: E. coli Rosetta (DE3), purified (Glutathione Sepharose 4B; eluted with reduced glutathione or kept on beads); not shown: GST, N-terminal, kept
With B1, the binding result is reported as “binds”.
